Drawing on patent US20090264352A1 (published 2009), this text covers IC50 for 1 molecule.

This assay addresses T1, GLP-1 receptor (RINm5F cell membranes) (UniProt P32301 22-463, limits assumed).
T1 construct: whole, on cells; The receptor source is homogenized cell membranes, not intact cells
T1 sequence (looked up): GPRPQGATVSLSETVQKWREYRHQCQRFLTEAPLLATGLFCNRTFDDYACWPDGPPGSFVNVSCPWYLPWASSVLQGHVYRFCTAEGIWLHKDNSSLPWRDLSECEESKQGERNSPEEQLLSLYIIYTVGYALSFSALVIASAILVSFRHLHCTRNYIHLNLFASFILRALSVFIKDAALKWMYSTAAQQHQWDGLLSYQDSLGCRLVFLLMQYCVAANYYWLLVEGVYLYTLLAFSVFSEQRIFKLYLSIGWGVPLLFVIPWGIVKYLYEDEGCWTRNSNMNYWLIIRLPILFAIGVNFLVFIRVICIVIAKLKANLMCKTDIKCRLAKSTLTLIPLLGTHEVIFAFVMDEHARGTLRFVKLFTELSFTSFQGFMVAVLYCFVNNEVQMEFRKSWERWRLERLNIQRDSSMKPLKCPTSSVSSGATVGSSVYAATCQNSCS
Nature of the assay: displacement of [125I]GLP-1 from RINm5F cell membranes, filtration and scintillation counting. For orientation: Displacement assays read how much labelled ligand stays bound in the presence of the test substance.

Description: Reaction mixtures are filtered through glass filter pads presoaked with 0.3% PEI solution and rinsed with ice-cold phosphate buffered saline. Bound counts are determined using a scintillation counter. Binding affinities are calculated using GraphPad Prism [sequence] PRISM® software (GraphPad Software, Inc., San Diego, Calif.).

B1: GLP-1 (9-36) (peptide, UniProt P01275 100-127, looked up)
peptide: EGTFTSDVSSYLEGQAAKEFIAWLVKGR
notes: range 100-127; Test compound in the displacement assay
Broadly, the IC50 is the concentration that inhibits the measured activity by half. Take B1: the IC50 turned out to be 65 nM. This counts as double-digit nanomolar.
